Test results reported in patent US20190284299A1 (published 2019).

T1: recombinant human Trop-2 (Sino Biological, Cat. No: 10428-H08H) (human, UniProt P09758 27-274)
T1 chain: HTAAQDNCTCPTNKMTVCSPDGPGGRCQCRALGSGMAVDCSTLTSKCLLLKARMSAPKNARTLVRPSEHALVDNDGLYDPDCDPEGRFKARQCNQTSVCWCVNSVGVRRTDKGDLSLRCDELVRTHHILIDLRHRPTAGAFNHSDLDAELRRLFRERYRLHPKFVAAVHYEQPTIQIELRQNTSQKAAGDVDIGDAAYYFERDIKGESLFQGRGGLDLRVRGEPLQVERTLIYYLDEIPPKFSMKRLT


Target: T1, recombinant human Trop-2 (Sino …)
Experiment: ELISA

EC50 | Binder
0.081 nM | Anti-Trop-2 mAb (antibody, V domains shown) VH: VQLQQSGSELKKPGASVKVSCKASGYTFTNYGMNWVKQAPGQGLKWMGWINTYTGEPTYTDDFKGRFAFSLDTSVSTAYLQISSLKADDTAVYFCARGGFGSSYWYFDVWGQGSLVTVSS VL: DIQLTQSPSSLSASVGDRVSITCKASQDVSIAVAWYQQKPGKAPKLLIYSASYRYTGVPDRFSGSGSGTDFTLTISSLQPEDFAVYYCQQHYITPLTFGAGTKV
0.28 nM | heterodimeric anti-Trop-2/anti-CD3-scFv bispecific antibody (bispecific antibody) heavy: not shown light: DIQLTQSPSSLSASVGDRVSITCKASQDVSIAVAWYQQKPGKAPKLLIYSASYRYTGVPDRFSGSGSGTDFTLTISSLQPEDFAVYYCQQHYITPLTFGAGTKVEIKRTVAAPSVFIFPPSDEQLKSGTASVVCLLNNFYPREAKVQWKVDNALQSGNSQESVTEQDSKDSTYSLSSTLTLSKADYEKHKVYACEVTHQGLSSPVTKSFNRGEC scFv: not shown
